Experimental data: doi:10.1101/2024.08.19.608718, “The structural basis for RNA slicing by human Argonaute2”

Biological target: HsAGO2 D669A (catalytically dead) (Homo sapiens, UniProt Q9UKV8 1-859, D669A)
Assay: cryo-EM (3.3 A); 1 mM Mg2+; one Mg modelled; Dissociation filter binding: 17.6 mM HEPES pH 7.4, 97.8 mM KOAc, 0.978 mM Mg(OAc)2, 5 mM DTT, BSA, yeast tRNA, 0.01% IGEPAL, 1.6% glycerol, 37 C; cryo-EM complex: 50 mM Tris pH 7.5, 150 mM NaCl, 1 mM MgCl2, 2% glycerol, 0.5 mM TCEP (target bound at 25 C in 10% glycerol)
Details: protein: recombinant; tags: 3xFLAG-SUMOEu1, cleaved off by SENPEuB; label: biotin on target 3' end (click, diazo biotin azide); guide-target paired from g2 to g22; target overhangs 5' 3 nt and 3' 3 nt; g1 not paired

HsAGO2 D669A (catalytically dead), sequence (Q9UKV8 whole entry D669A): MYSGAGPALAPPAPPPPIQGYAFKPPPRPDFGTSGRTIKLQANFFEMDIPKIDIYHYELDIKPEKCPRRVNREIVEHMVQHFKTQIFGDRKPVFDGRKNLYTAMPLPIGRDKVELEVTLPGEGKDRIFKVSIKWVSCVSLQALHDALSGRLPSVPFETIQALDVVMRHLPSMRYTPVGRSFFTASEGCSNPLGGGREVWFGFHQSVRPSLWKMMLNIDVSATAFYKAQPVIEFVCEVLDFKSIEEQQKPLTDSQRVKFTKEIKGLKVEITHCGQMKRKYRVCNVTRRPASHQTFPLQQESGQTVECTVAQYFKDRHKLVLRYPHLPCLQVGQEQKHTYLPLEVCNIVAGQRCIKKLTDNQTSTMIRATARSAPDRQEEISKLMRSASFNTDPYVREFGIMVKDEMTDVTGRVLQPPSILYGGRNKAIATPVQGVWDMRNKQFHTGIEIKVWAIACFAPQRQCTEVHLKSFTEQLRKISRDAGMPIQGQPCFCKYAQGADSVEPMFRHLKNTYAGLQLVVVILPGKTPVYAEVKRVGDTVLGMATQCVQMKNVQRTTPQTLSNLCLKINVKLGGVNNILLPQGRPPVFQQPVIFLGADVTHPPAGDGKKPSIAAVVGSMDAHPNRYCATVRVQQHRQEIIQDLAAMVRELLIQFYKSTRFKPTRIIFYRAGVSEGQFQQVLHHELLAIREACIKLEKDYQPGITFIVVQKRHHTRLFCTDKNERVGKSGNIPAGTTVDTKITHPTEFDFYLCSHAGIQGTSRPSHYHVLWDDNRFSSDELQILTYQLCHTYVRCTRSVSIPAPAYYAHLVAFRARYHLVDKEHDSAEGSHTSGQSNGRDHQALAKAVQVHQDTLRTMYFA

B1: miR-7 guide (22 nt) / fully complementary target (dsRNA)
RNA 1: UGGAAGACUAGUGAUUUUGUUG
RNA 2: UUUCAACAAAAUCACUAGUCUUCCAAAU
modifications: guide 5'-phosphate; target nt 1-3 (U) and 26-27 (A) 2'-O-methyl; 3'-terminal nt is deoxyuridine with 5-octadiynyl
Does B1 bind?
Result: binds
